Experimental data: publication PMC5638582

Target: Erv1 with a C-terminal histidine tag (Erv1-His) (S. cerevisiae) (UniProt P27882)
Experiment: pull-down

Sequence of UniProt P27882 (P27882 whole entry): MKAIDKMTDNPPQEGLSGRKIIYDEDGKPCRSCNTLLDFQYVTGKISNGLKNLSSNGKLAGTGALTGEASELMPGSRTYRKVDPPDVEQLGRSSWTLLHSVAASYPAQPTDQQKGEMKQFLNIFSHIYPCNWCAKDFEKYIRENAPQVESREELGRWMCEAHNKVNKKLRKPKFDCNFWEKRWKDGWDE

fraction copurified: 10%
Substance: Osm1 (fumarate reductase), endogenous mitochondrial form (from UniProt P21375 33-501) (enzyme)
